The target of test [1] is recombinant Der f 21 with N-terminal 6x-His-tag (Dermatophagoides farinae) (UniProt B2GM84). In words: SEC-MALS; Superdex S75 increase, 20 mM Tris pH 7.9, 50 mM NaCl; 100 uL loaded at 5 mg/mL.
The target of test [2] is recombinant Der f 21 with the His-tag cleaved (Dermatophagoides farinae) (UniProt B2GM84). In words: static light scattering; crDer f 21 at 0.25, 1.00 and 1.50 mg/mL.

For orientation: stoichiometry N means a count of units in the complex or per binding partner. Regarding “recombinant Der f 21 with N-terminal 6x-His-tag (from UniProt B2GM84 25-136) (natural protein)”, the stoichiometry N in test [1] amounted to 2. Regarding “recombinant Der f 21 with the His-tag cleaved (from UniProt B2GM84 25-136) (natural protein)”, in test [2], the stoichiometry N came to 2.
